The text below walks through data of US20230348603A1 (VERSEAU THERAPEUTICS, published 2023).

Assay [1] addresses T1, Human VSIG4-L-His (human, UniProt Q9Y279 20-283).
T1 construct: long isoform ECD with His tag; also called hVSIG4-L
T1 sequence: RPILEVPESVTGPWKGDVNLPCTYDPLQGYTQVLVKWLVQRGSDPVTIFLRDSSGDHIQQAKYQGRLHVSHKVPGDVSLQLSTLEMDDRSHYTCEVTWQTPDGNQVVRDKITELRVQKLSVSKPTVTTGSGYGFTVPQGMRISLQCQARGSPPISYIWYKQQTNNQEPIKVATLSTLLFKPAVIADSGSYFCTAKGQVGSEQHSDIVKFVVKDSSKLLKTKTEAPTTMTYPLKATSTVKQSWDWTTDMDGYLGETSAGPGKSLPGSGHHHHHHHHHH
As to the kind of experiment: BLI (Octet), mouse IgG on AMC sensor, antigen 100 nM.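 Also: octet Red384 biolayer interferometry with immobilized mouse hybridoma antibodies, 300 s association then 300 s dissociation at 30 °C, isotype-control reference subtraction, 1:1 global fit.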

The target of the next assay is T2, Human VSIG4-S-His (human, UniProt Q9Y279 20-283).
T2 construct: short isoform ECD with His tag; also called hVSIG4-S; VISG4-S-His
T2 sequence: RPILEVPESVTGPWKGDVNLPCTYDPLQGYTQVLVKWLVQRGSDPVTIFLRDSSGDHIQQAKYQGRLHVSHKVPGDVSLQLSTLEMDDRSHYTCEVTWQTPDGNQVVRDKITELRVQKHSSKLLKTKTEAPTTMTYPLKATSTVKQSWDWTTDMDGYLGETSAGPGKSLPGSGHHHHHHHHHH
The assay is described as above.

Assay [2] deals with T3, Cynomolgus Monkey VSIG4-L-His (cynomolgus monkey).
T3 construct: ECD with His tag; also called cyVSIG4-L; cyno VSIG4-L-His
T3 chain: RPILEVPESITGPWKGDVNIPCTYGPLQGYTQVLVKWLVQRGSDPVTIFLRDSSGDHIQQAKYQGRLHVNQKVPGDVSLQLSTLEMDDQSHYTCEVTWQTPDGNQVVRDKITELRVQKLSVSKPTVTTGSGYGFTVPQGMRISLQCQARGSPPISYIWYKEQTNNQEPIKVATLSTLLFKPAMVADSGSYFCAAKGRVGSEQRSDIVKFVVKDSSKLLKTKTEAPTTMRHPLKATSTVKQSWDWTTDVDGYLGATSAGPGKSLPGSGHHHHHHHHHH
The assay is described as above.

Assay [3] has as its target T1, Human VSIG4-L-His. Kind of assay: SPR (FJB).
Assay [4] deals with T3, Cynomolgus Monkey VSIG4-L-His. Kind of assay: SPR (FJB).
The target of assay [5] is T4, Human VSIG4-L-Fc (human).
T4 construct: also called hVSIG4-L-Fc; hVSIG4-L
As to the kind of experiment: ligand blocking of C3b, IgG.

Assay [6] addresses T4, Human VSIG4-L-Fc. As to the kind of experiment: ligand blocking of iC3b, IgG.
The target of assay [7] is T4, Human VSIG4-L-Fc. Kind of assay: ELISA, IgG 50 nM on coated antigen.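 Also: Mouse-human chimeric IgG4 antibodies incubated 1 h on plate-coated VSIG4 proteins, bound IgG detected with HRP-labelled anti-human IgG, irrelevant antibody and protein as specificity controls.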 For orientation: ELISA stands for enzyme-linked immunosorbent assay.
The target in the next assay is T5, Human VSIG4-S-Fc (human).
T5 construct: short isoform ECD fused to human Fc1; also called hVSIG4-S
T5 sequence (chain, as listed by the source limits assumed): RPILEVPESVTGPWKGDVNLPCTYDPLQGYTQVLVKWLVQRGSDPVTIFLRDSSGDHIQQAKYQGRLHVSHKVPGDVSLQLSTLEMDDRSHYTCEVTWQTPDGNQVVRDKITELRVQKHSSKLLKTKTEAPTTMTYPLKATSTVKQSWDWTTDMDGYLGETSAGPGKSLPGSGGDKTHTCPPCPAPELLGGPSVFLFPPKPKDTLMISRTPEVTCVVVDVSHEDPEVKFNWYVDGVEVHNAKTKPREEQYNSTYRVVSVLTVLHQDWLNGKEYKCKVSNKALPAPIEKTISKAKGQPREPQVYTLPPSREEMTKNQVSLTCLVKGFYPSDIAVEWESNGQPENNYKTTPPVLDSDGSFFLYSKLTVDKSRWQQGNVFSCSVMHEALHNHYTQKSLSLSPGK
As to the kind of experiment: ELISA, IgG 50 nM on coated antigen.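 Also: Mouse-human chimeric IgG4 antibodies incubated 1 h on plate-coated VSIG4 proteins, bound IgG detected with HRP-labelled anti-human IgG, irrelevant antibody and protein as specificity controls.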

Assay [8] addresses T3, Cynomolgus Monkey VSIG4-L-His. As to the kind of experiment: ELISA, IgG 50 nM on coated antigen.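 Also: Mouse-human chimeric IgG4 antibodies incubated 1 h on plate-coated VSIG4 proteins, bound IgG detected with HRP-labelled anti-human IgG, irrelevant antibody and protein as specificity controls.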
A further assay addresses T6, Mouse VSIG4-His (mouse).
T6 construct: ECD with His tag; also called mVSIG4
T6 chain: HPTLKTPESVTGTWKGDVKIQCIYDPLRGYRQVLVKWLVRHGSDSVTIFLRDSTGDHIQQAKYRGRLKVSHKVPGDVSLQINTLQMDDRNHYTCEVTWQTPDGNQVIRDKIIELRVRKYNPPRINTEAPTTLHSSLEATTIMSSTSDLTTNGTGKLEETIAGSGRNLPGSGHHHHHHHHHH
Kind of assay: ELISA, IgG 50 nM on coated antigen.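 Also: Mouse-human chimeric IgG4 antibodies incubated 1 h on plate-coated VSIG4 proteins, bound IgG detected with HRP-labelled anti-human IgG, irrelevant antibody and protein as specificity controls.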

Assay [9] concerns the target T1, Human VSIG4-L-His. As to the kind of experiment: BLI (Octet), IgG on AHC sensor, antigen 100 nM. (BLI is a label-free optical method that tracks binding on a fibre tip over time.)
In assay [10] the target is T3, Cynomolgus Monkey VSIG4-L-His. As to the kind of experiment: BLI (Octet), IgG on AHC sensor, antigen 100 nM.
For assay [11], the target named is T7, Human VSIG4-L-CHO (human VSIG4 long isoform on CHO-K1 cells) (human, UniProt Q9Y279 20-399).
T7 construct: also called hVSIG4-L (flow cytometry)
T7 sequence: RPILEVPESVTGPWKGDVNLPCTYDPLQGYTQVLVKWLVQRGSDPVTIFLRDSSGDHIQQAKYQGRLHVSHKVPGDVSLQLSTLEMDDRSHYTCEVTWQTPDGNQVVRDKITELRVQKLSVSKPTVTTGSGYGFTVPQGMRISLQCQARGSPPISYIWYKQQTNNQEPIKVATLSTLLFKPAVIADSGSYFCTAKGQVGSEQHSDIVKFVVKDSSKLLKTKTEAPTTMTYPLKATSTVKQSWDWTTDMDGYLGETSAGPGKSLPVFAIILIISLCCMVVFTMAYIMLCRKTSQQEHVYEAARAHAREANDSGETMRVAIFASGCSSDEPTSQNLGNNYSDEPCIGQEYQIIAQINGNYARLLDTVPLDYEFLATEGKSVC
As to the kind of experiment: flow cytometry, CHO-K1 cells expressing hVSIG4-L.

Assay [12] deals with T4, Human VSIG4-L-Fc. Kind of assay: BLI binning on hVSIG4-L-Fc, competitor 12A08 first.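 Also: normalized to binding of second antibody without first competitor antibody.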
Assay [13] deals with T4, Human VSIG4-L-Fc. Kind of assay: BLI binning on hVSIG4-L-Fc, competitor 12A12 first.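 Also: normalized to binding of second antibody without first competitor antibody.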
The target of assay [14] is T4, Human VSIG4-L-Fc. As to the kind of experiment: BLI binning on hVSIG4-L-Fc, competitor 13H11 first.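 Also: normalized to binding of second antibody without first competitor antibody.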
Assay [15] has as its target T4, Human VSIG4-L-Fc. As to the kind of experiment: BLI binning on hVSIG4-L-Fc, competitor 14C05 first.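 Also: normalized to binding of second antibody without first competitor antibody.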
For assay [16], the target named is T4, Human VSIG4-L-Fc. As to the kind of experiment: BLI binning on hVSIG4-L-Fc, competitor 14D12 first.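 Also: normalized to binding of second antibody without first competitor antibody.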
Assay [17] deals with T4, Human VSIG4-L-Fc. Kind of assay: BLI binning on hVSIG4-L-Fc, competitor 15A06 first.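 Also: normalized to binding of second antibody without first competitor antibody.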
The target in assay [18] is T4, Human VSIG4-L-Fc. As to the kind of experiment: BLI binning on hVSIG4-L-Fc, competitor 15C03 first.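 Also: normalized to binding of second antibody without first competitor antibody.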
The target of assay [19] is T4, Human VSIG4-L-Fc. Kind of assay: BLI binning on hVSIG4-L-Fc, competitor 15C04 first.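 Also: normalized to binding of second antibody without first competitor antibody.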
Assay [20] has as its target T4, Human VSIG4-L-Fc. Kind of assay: BLI binning on hVSIG4-L-Fc, competitor 16E03 first.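 Also: normalized to binding of second antibody without first competitor antibody.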
For assay [21], the target named is T4, Human VSIG4-L-Fc. As to the kind of experiment: BLI binning on hVSIG4-L-Fc, competitor 16E10 first.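 Also: normalized to binding of second antibody without first competitor antibody.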
Assay [22] deals with T4, Human VSIG4-L-Fc. As to the kind of experiment: ligand competition ELISA (FJB), blocked ligand C3b.
Assay [23] addresses T4, Human VSIG4-L-Fc. Kind of assay: ligand competition ELISA (FJB), blocked ligand iC3b.
Assay [24] addresses T7, Human VSIG4-L-CHO (human VSIG4 long …). Kind of assay: flow cytometry (FJB), 200 nM mAb, huVSIG4-L CHO-K1 cells. In general terms: In flow cytometry, cells or beads pass a laser one at a time.
For assay [25] the target is unchanged. As to the kind of experiment: flow cytometry (FJB), 200 nM mAb, huVSIG4-L CHO-K1 over parental CHO-K1.

B1: 5D2.C8 murine hybridoma antibody (antibody, V domains shown)
VH: EVKLVESGGGLVKPGGSLKLSCAVSGFTFSNSAMSWVRQTPAKRLEWVAYISISGDNTYYPDSVKGRFTISRDNAKNTLYLQMSSLRSEDTAMYYCARRGYDYDGFTHWGQGTLVTVSA
VL: DILLTQSPAILSVSPGERVSFSCRASQNIGTSIHWYQQRTNGSPRLLIKYASQSISGIPSRFSGSGSGTDFTLSINSVESEDIADYYCQQSYSWPLTFGTGTQLELK
notes: murine IgG purified from hybridoma supernatant
Consider B1, for which the Kd with Human VSIG4-L-His [1] is 0.475 nM; with Human VSIG4-S-His, 0.505 nM; in [2], 0.435 nM.

B2: 9A10.C4 murine hybridoma antibody (antibody, V domains shown)
VH: EVQLVESGGALVQPGGSLKLSCVASGFSFSNCVMSWVRQSPEKRLEWVATIGSDGSYSYYQDNVKGRFTVSRDNAKNTLYLQMSSLGSEDTALYYCGRHIYGYDVVDYWGQGTSLTVSS
VL: DIVMTQSHKFMSTSVGDRVTITCKASQDVSNVVAWFQQKPGQSPKLLIYSASYRFGGVPDRFTGSGSGTDFTFTISSVQAEDLAVYYCQQHYDTPLTFGTGTTLELK
notes: as for B1
As for B2, the Kd amounted to 0.965 nM with Human VSIG4-L-His [1], 5.16 nM with Human VSIG4-S-His and 1.23 nM in [2].

B3: 16F6.E1 murine hybridoma antibody (antibody, V domains shown)
VH: QVQLQQPGAEMVRPGASLKLSCKASGYTFTSYWMHWVKQRPGQGLEWIGKIDPSKNTTHYNQNFRDKATLTVDRSSSTAYMQLNSLTSEDSAVYFCVTWDGDFTYWGQGTLVTISA
VL: NIVLTQSPPSLAVSLGQRATISCRASESVDSYGNSFMHWYQQKPGQPPKLLIYLASNLESGVPARFSGSGSRTDFTLTIDPVEADDAATYFCHQNNEDPWTFGGGTKLEIK
notes: murine IgG purified from hybridoma supernatant; also called 16F6.H6
On to B3, for which the Kd amounted to 0.472 nM with Human VSIG4-L-His [1], 2.87 nM with Human VSIG4-S-His and 0.802 nM in assay [2].

B4: 10E8.B6 murine hybridoma antibody (antibody, V domains shown)
VH: EVQLQQSGPELMKPGDSVKMSCKASGYTFTDYYMDWVKQSHGKSLEWIGYIYPNIDFTTYNQKFKGKATLTVDKSSNTAYMELHSLTSEDSAVYYCTRRDLPLHGSAYYFDYWGQGTTLTVSS
VL: DIVMSQSPSSLAVSAGEKVTMSCKSSQSLLNSRTRKNYLAWYQQKPGQSPKLLIYWASTRESGVPDRFTGSGSGTDFTLTISSVQAEDLAVYYCKQSYDLFTFGSGTKLEIK
notes: as for B1
With B4, the Kd with Human VSIG4-L-His [1] worked out at 2.13 nM; with Human VSIG4-S-His, 6.95 nM; in assay [2], 1.56 nM.

B5: 14F8.H6 murine hybridoma antibody (antibody, V domains shown)
VH: EVHLVESGGALVKPGGSLKLSCTASGFTFSNSVMSWIRQTPEKRLEWVATIGSGGTYIYYPDSVKGRFTISRDNSKNTLFLQMTSLRSEDTALYYCARHIYGYDVVDYWGQGTTLTVST
VL: DIVMTQSHRFMSTSVGDRVSITCKASHDVSNVVAWYQQKPGQSPELLIYSASYRYTGVPARFTGSGSGTDFTFTISSVQAEDLAVYFCQQHFTTPLTFGAGTSLEVR
notes: as for B1
With B5, the dissociation constant Kd with Human VSIG4-L-His [1] turned out to be 1.72 nM; with Human VSIG4-S-His, 5.86 nM; in assay [2] it was 2.02 nM.

B6: 13E11.A4 murine hybridoma antibody (antibody, V domains shown)
VH: EVQLVESGGALVKPGGSLKLSCVASRFNLNNCVMSWIRQTPEKRLEWVATIDSGSIYTYYPDSVKGRFTISRDNAKNTLYLQMSSLRSEDTAVYYCVRHIYGYDVVDNWGQGTTLTVAS
VL: DIVMTQSHKFMSTSVGDNVSITCKASQYVSNTVAWYQQKPGQSPKLLIYSASYRNTGVPDRFTGSGSGTNFTFTISNMQAEDLAFYYCQQHYTSPLTFGAGTKLELK
notes: as for B1
Take B6: the Kd with Human VSIG4-L-His [1] came out at 1.76 nM; in the assay with Human VSIG4-S-His, 4.99 nM; in assay [2], 1.4 nM.

B7: 15C04 mouse/human chimeric IgG4 (S228P) kappa (antibody, V domains shown)
VH: QIQLQESGPSLVRPSQTLSLTCSVTGDSITSGYWNWIRKFPGDKLEYLGYISYSGFTYYNPSLKSRISITRDTSKNQYYLQLNSVTTEDTATYYCASSYYGSSLGFPYWGQGTLVTVSA
VL: DVVMTQTPLSLPVSLGDQASISCRSSQSLVHSNGNTYLHWYLQKPGQSPKLLIYKVSNRFSGVPDRFSGSGSGTDFTLKISRVEAEDLGVYFCSQSTHVPWTFGGGTKLEIKR
As for B7, the dissociation constant (Kd) in the assay with Human VSIG4-L-His [3] worked out at 5.4 nM; in assay [4] it was 15.6 nM; with Human VSIG4-L-His [9], 25.4 nM; in assay [10], 183 nM. Also, the “Percent Blocking C3b” value with Human VSIG4-L-Fc [5] came to 93%. Moreover, the “Percent Blocking iC3b” value in the assay with Human VSIG4-L-Fc [6] is 94%. Besides, the “ELISA OD450” value with Human VSIG4-L-Fc [7] was found to be 4.43 OD450; in the assay with Human VSIG4-S-Fc, 3.28 OD450; in assay [8] it was 4.53 OD450; in the assay with Mouse VSIG4-His, 0.052 OD450. In assay [11], this molecule registered an EC50 of 8.9 nM. The “normalized maximum binding nm shift” value was found to be 0.8 normalized with Human VSIG4-L-Fc [12]; 0.82 normalized in the assay with Human VSIG4-L-Fc [13]; 0.68 normalized in the assay with Human VSIG4-L-Fc [14]; 0.72 normalized with Human VSIG4-L-Fc [15]; 0.72 normalized in the assay with Human VSIG4-L-Fc [16]; 0.08 normalized with Human VSIG4-L-Fc [17]. Further, the “normalized maximum binding nm shift” value with Human VSIG4-L-Fc [18] was 0.81 normalized; with Human VSIG4-L-Fc [19], 0.16 normalized; with Human VSIG4-L-Fc [20], 0.74 normalized; with Human VSIG4-L-Fc [21], 0.92 normalized. The half-maximal inhibitory concentration (IC50) with Human VSIG4-L-Fc [22] amounted to 19.7 nM; with Human VSIG4-L-Fc [23], 17 nM. Also, in assay [24], the “Binding (200 nM) MFI” value stood at 53200 MFI. Besides, the “Binding (200 nM) Fold-Over-Parental” value in assay [25] amounted to 73 fold.

One may read the Kd as the constant that tells how readily two partners part at equilibrium. What is called EC50 is the concentration needed to bring the measured effect to its halfway point. The IC50 is the concentration at which inhibition is half-maximal.
